Measurements as given in paper PMC2843198 (The Journal of Biological Chemistry, 2010).

Target: the molecule itself
Test: SEC

B1: TAP-tagged Fun30 (Function unknown now 30) (enzyme, S. cerevisiae, UniProt P31380 1-1131, looked up)
chain: MSGSHSNDEDDVVQVPETSSPTKVASSSPLKPTSPTVPDASVASLRSRFTFKPSDPSEGAHTSKPLPSGSPEVALVNLAREFPDFSQTLVQAVFKSNSFNLQSARERLTRLRQQRQNWTWNKNASPKKSETPPPVKKSLPLANTGRLSSIHGNINNKSSKITVAKQKTSIFDRYSNVINQKQYTFELPTNLNIDSEALSKLPVNYNKKRRLVRADQHPIGKSYESSATQLGSAREKLLANRKYGRHANDNDEEEEESMMTDDDDASGDDYTESTPQINLDEQVLQFINDSDIVDLSDLSDTTMHKAQLIASHRPYSSLNAFVNTNFNDKDTEENASNKRKRRAAASANESERLLDKITQSIRGYNAIESVIKKCSSYGDLVTSQMKKWGVQVEGDNSELDLMNLGEDDDDDNDDGNNDNNNSNNNNTAGADATSKEKEDTKAVVEGFDETSAEPTPAPAPAPVERETKRIRNTTKPKVVEDEDDDVDLEAIDDELPQSEHEDDDYEEEDEDYNDEEEDVEYDDGDDDDDDDDEFVATRKNTHVISTTSRNGRKPIVKFFKGKPRLLSPEISLKDYQQTGINWLNLLYQNKMSCILADDMGLGKTCQVISFFAYLKQINEPGPHLVVVPSSTLENWLREFQKFAPALKIEPYYGSLQEREELRDILERNAGKYDVIVTTYNLAAGNKYDVSFLKNRNFNVVVYDEGHMLKNSTSERFAKLMKIRANFRLLLTGTPLQNNLKELMSLLEFIMPNLFISKKESFDAIFKQRAKTTDDNKNHNPLLAQEAITRAKTMMKPFILRRRKDQVLKHLPPKHTHIQYCELNAIQKKIYDKEIQIVLEHKRMIKDGELPKDAKEKSKLQSSSSKNLIMALRKASLHPLLFRNIYNDKIITKMSDAILDEPAYAENGNKEYIKEDMSYMTDFELHKLCCNFPNTLSKYQLHNDEWMQSGKIDALKKLLKTIIVDKQEKVLIFSLFTQVLDILEMVLSTLDYKFLRLDGSTQVNDRQLLIDKFYEDKDIPIFILSTKAGGFGINLVCANNVIIFDQSFNPHDDRQAADRAHRVGQTKEVNITTLITKDSIEEKIHQLAKNKLALDSYISEDKKSQDVLESKVSDMLEDIIYDENSKPKGTKE
stoichiometry N: 2
